Source: US20240132578A1

Columns and labels:
Test in all cases: cell-based or functional assay
[1] = molecular target: HIV-1 Env of isolate 6535.3 (subtype B) (HIV-1)
[2] = molecular target: HIV-1 Env of isolate 92BR020 (subtype B) (HIV-1)
[3] = molecular target: HIV-1 Env of isolate 93TH305 (subtype B) (HIV-1)
[4] = molecular target: HIV-1 Env of isolate APV 13 (subtype B) (HIV-1)
[5] = molecular target: HIV-1 Env of isolate APV 6 (subtype B) (HIV-1)
[6] = molecular target: HIV-1 Env of isolate APV_17 (subtype B) (HIV-1)
[7] = molecular target: HIV-1 Env of isolate MGRM-G-001 (subtype G), on pseudovirus (HIV-1)
[8] = molecular target: HIV-1 Env of isolate MGRM-G-004 (subtype G), on pseudovirus (HIV-1)
[9] = molecular target: HIV-1 Env of isolate MGRM-G-006 (subtype G), on pseudovirus (HIV-1)
[10] = molecular target: HIV-1 Env of isolate MGRM-G-009 (subtype G), on pseudovirus (HIV-1)
[11] = molecular target: HIV-1 Env of isolate MGRM-G-011 (subtype G), on pseudovirus (HIV-1)
[12] = molecular target: HIV-1 Env of isolate MGRM-G-013 (subtype G), on pseudovirus (HIV-1)
[13] = molecular target: HIV-1 Env of isolate MGRM-G-014 (subtype G), on pseudovirus (HIV-1)
[14] = molecular target: HIV-1 Env of isolate MGRM-G-015 (subtype G), on pseudovirus (HIV-1)
[15] = molecular target: HIV-1 Env of isolate MGRM-G-016 (subtype G), on pseudovirus (HIV-1)
[16] = molecular target: HIV-1 Env of isolate MGRM-G-017 (subtype G), on pseudovirus (HIV-1)
[17] = molecular target: HIV-1 Env of isolate MGRM-G-019 (subtype G), on pseudovirus (HIV-1)
[18] = molecular target: HIV-1 Env of isolate MGRM-G-024 (subtype G), on pseudovirus (HIV-1)
[19] = molecular target: HIV-1 Env of isolate MGRM-G-025 (subtype G), on pseudovirus (HIV-1)
[20] = molecular target: HIV-1 Env of isolate MGRM-G-027 (subtype G), on pseudovirus (HIV-1)
[21] = molecular target: HIV-1 Env of isolate MGRM-G-028 (subtype G), on pseudovirus (HIV-1)
[22] = molecular target: HIV-1 JR-CSF Env G471A (HIV-1 JR-CSF) (UniProt P20871)
[23] = molecular target: aMLV envelope, on pseudovirus (negative control)
[24] = molecular target: HIV-1 Env of isolate 93MW959 (subtype C) (HIV-1)
[25] = molecular target: HIV-1 Env of isolate 97ZA012 (subtype C) (HIV-1)
[26] = molecular target: HIV-1 Env of isolate 98IN022 (subtype C) (HIV-1)
[27] = molecular target: HIV-1 Env of isolate MGRM-C-001 (subtype C) (HIV-1)
[28] = molecular target: HIV-1 Env of isolate MGRM-C-002 (subtype C) (HIV-1)
[29] = molecular target: HIV-1 Env of isolate MGRM-C-004 (subtype C) (HIV-1)
[30] = molecular target: HIV-1 Env of isolate MGRM-C-005 (subtype C) (HIV-1)
[31] = molecular target: HIV-1 Env of isolate MGRM-C-006 (subtype C) (HIV-1)
[32] = molecular target: HIV-1 Env of isolate MGRM-C-007 (subtype C) (HIV-1)
[33] = molecular target: HIV-1 Env of isolate MGRM-C-008 (subtype C) (HIV-1)
[34] = molecular target: HIV-1 Env of isolate MGRM-C-009 (subtype C) (HIV-1)
[35] = molecular target: HIV-1 Env of isolate MGRM-C-010 (subtype C) (HIV-1)
[36] = molecular target: HIV-1 Env of isolate MGRM-C-012 (subtype C) (HIV-1)
[37] = molecular target: HIV-1 Env of isolate MGRM-C-013 (subtype C) (HIV-1)
[38] = molecular target: HIV-1 Env of isolate MGRM-C-014 (subtype C) (HIV-1)
[39] = molecular target: HIV-1 Env of isolate MGRM-C-015 (subtype C) (HIV-1)
[40] = molecular target: HIV-1 Env of isolate MGRM-C-017 (subtype C) (HIV-1)
[41] = molecular target: HIV-1 Env of isolate MGRM-C-019 (subtype C) (HIV-1)
[42] = molecular target: HIV-1 Env of isolate MGRM-C-020 (subtype C) (HIV-1)
[43] = molecular target: HIV-1 Env of isolate MGRM-C-022 (subtype C) (HIV-1)
[44] = molecular target: HIV-1 Env of isolate MGRM-C-023 (subtype C) (HIV-1)
[45] = molecular target: HIV-1 Env of isolate MGRM-C-024 (subtype C) (HIV-1)
[46] = molecular target: HIV-1 Env of isolate MGRM-C-025 (subtype C) (HIV-1)
[47] = molecular target: HIV-1 Env of isolate MGRM-C-026 (subtype C) (HIV-1)
[48] = molecular target: HIV-1 Env of isolate MGRM-C-027 (subtype C) (HIV-1)
[49] = molecular target: HIV-1 Env of isolate MGRM-C-028 (subtype C) (HIV-1)
[50] = molecular target: HIV-1 JR-CSF Env P470A (HIV-1 JR-CSF) (UniProt P20871)
[51] = molecular target: HIV-1 JR-CSF Env R480A (HIV-1 JR-CSF) (UniProt P20871)

B1: PGT-135 (antibody, V domains shown)
VH: QLQMQESGPGLVKPSETLSLSCTVSGDSIRGGEWGDKDYHWGWVRHSAGKGLEWIGSIHWRGTTHYKESLRRRVSMSIDTSRNWFSLRLASVTAADTAVYFCARHRHHDVFMLVPIAGWFDVWGPGVQVTVSS
VL: EIVMTQSPDTLSVSPGETVTLSCRASQNINKNLAWYQYKPGQSPRLVIFETYSKIAAFPARFVASGSGTEFTLTINNMQSEDVAVYYCQQYEEWPRTFGQGTKVDIK
IC50 (µg/mL), pseudovirus neutralization [1]: > 50 µg/mL
IC50 (µg/mL), pseudovirus neutralization [2]: 0.073 µg/mL
IC50 (µg/mL), pseudovirus neutralization [3]: > 50 µg/mL
IC50 (µg/mL), pseudovirus neutralization [4]: 0.716 µg/mL
IC50 (µg/mL), pseudovirus neutralization [5]: > 50 µg/mL
IC50 (µg/mL), pseudovirus neutralization [6]: > 50 µg/mL
IC50 (µg/mL), neutralization of pseudovirus [7]: 0.393 µg/mL
IC50 (µg/mL), neutralization of pseudovirus [8]: > 50 µg/mL
IC50 (µg/mL), neutralization of pseudovirus [9]: > 50 µg/mL
IC50 (µg/mL), neutralization of pseudovirus [10]: > 50 µg/mL
IC50 (µg/mL), neutralization of pseudovirus [11]: > 50 µg/mL
IC50 (µg/mL), neutralization of pseudovirus [12]: > 50 µg/mL
IC50 (µg/mL), neutralization of pseudovirus [13]: > 50 µg/mL
IC50 (µg/mL), neutralization of pseudovirus [14]: > 50 µg/mL
IC50 (µg/mL), neutralization of pseudovirus [15]: > 50 µg/mL
IC50 (µg/mL), neutralization of pseudovirus [16]: 0.137 µg/mL
IC50 (µg/mL), neutralization of pseudovirus [17]: 0.145 µg/mL
IC50 (µg/mL), neutralization of pseudovirus [18]: 0.062 µg/mL
IC50 (µg/mL), neutralization of pseudovirus [19]: 0.592 µg/mL
IC50 (µg/mL), neutralization of pseudovirus [20]: 0.062 µg/mL
IC50 (µg/mL), neutralization of pseudovirus [21]: > 50 µg/mL
Fold IC50 increase relative to wild-type [22]: 3 fold
IC50 (µg/mL), neutralization of pseudovirus [23]: > 50 µg/mL

B2: PGT-126 (antibody, V domains shown)
VH: QPQLQESGPGLVEASETLSLTCTVSGDSTAACDYFWGWVRQPPGKGLEWIGGLSHCAGYYNTGWTYHNPSLKSRLTISLDTPKNQVFLKLNSVTAADTAIYYCARFDGEVLVYHDWPKPAWVDLWGRGTLVTVSS
VL: QSALTQPPSASGSPGQSISISCTGTSNRFVSWYQQHPGKAPKLVIYGVNKRPSGVPDRFSGSKSGNTASLTVSGLQTDDEAVYYCSSLVGNWDVIFGGGTKLTVL
IC50 (µg/mL), pseudovirus neutralization [24]: 9.44 µg/mL
IC50 (µg/mL), pseudovirus neutralization [25]: 0.042 µg/mL
IC50 (µg/mL), pseudovirus neutralization [26]: 0.279 µg/mL
IC50 (µg/mL), pseudovirus neutralization [27]: > 50 µg/mL
IC50 (µg/mL), pseudovirus neutralization [28]: 0.011 µg/mL
IC50 (µg/mL), pseudovirus neutralization [29]: 0.033 µg/mL
IC50 (µg/mL), pseudovirus neutralization [30]: 0.298 µg/mL
IC50 (µg/mL), pseudovirus neutralization [31]: 0.014 µg/mL
IC50 (µg/mL), pseudovirus neutralization [32]: 25.3 µg/mL
IC50 (µg/mL), pseudovirus neutralization [33]: 2.12 µg/mL
IC50 (µg/mL), pseudovirus neutralization [34]: > 50 µg/mL
IC50 (µg/mL), pseudovirus neutralization [35]: > 50 µg/mL
IC50 (µg/mL), pseudovirus neutralization [36]: 0.111 µg/mL
IC50 (µg/mL), pseudovirus neutralization [37]: > 50 µg/mL
IC50 (µg/mL), pseudovirus neutralization [38]: > 50 µg/mL
IC50 (µg/mL), pseudovirus neutralization [39]: 3.14 µg/mL
IC50 (µg/mL), pseudovirus neutralization [40]: 0.17 µg/mL
IC50 (µg/mL), pseudovirus neutralization [41]: 0.005 µg/mL
IC50 (µg/mL), pseudovirus neutralization [42]: > 50 µg/mL
IC50 (µg/mL), pseudovirus neutralization [43]: 0.96 µg/mL
IC50 (µg/mL), pseudovirus neutralization [44]: 0.065 µg/mL
IC50 (µg/mL), pseudovirus neutralization [45]: > 50 µg/mL
IC50 (µg/mL), pseudovirus neutralization [46]: 0.786 µg/mL
IC50 (µg/mL), pseudovirus neutralization [47]: 0.007 µg/mL
IC50 (µg/mL), pseudovirus neutralization [48]: 15.6 µg/mL
IC50 (µg/mL), pseudovirus neutralization [49]: 0.196 µg/mL
IC50 (µg/mL), neutralization of pseudovirus [7]: 0.038 µg/mL
IC50 (µg/mL), neutralization of pseudovirus [8]: > 50 µg/mL
IC50 (µg/mL), neutralization of pseudovirus [9]: > 50 µg/mL
IC50 (µg/mL), neutralization of pseudovirus [10]: > 50 µg/mL
IC50 (µg/mL), neutralization of pseudovirus [11]: 7.32 µg/mL
IC50 (µg/mL), neutralization of pseudovirus [12]: 48.8 µg/mL
IC50 (µg/mL), neutralization of pseudovirus [13]: 0.009 µg/mL
IC50 (µg/mL), neutralization of pseudovirus [14]: > 50 µg/mL
IC50 (µg/mL), neutralization of pseudovirus [15]: > 50 µg/mL
IC50 (µg/mL), neutralization of pseudovirus [16]: > 50 µg/mL
IC50 (µg/mL), neutralization of pseudovirus [17]: 0.018 µg/mL
IC50 (µg/mL), neutralization of pseudovirus [18]: > 50 µg/mL
IC50 (µg/mL), neutralization of pseudovirus [19]: 17.1 µg/mL
IC50 (µg/mL), neutralization of pseudovirus [20]: 0.875 µg/mL
IC50 (µg/mL), neutralization of pseudovirus [21]: 0.012 µg/mL
Fold IC50 increase relative to wild-type [50]: 2.7 fold
Fold IC50 increase relative to wild-type [51]: 1.9 fold
IC50 (µg/mL), neutralization of pseudovirus [23]: > 50 µg/mL

B3: PGT-128 (antibody, V domains shown)
VH: QPQLQESGPTLVEASETLSLTCAVSGDSTAACNSFWGWVRQPPGKGLEWVGSLSHCASYWNRGWTYHNPSLKSRLTLALDTPKNLVFLKLNSVTAADTATYYCARFGGEVLRYTDWPKPAWVDLWGRGTLVTVSS
VL: QSALTQPPSASGSPGQSITISCTGTSNNFVSWYQQHAGKAPKLVIYDVNKRPSGVPDRFSGSKSGNTASLTVSGLQTDDEAVYYCGSLVGNWDVIFGGGTKLTVL
IC50 (µg/mL), pseudovirus neutralization [1]: 0.011 µg/mL
IC50 (µg/mL), pseudovirus neutralization [2]: 0.009 µg/mL
IC50 (µg/mL), pseudovirus neutralization [3]: 0.006 µg/mL
IC50 (µg/mL), pseudovirus neutralization [4]: 0.008 µg/mL
IC50 (µg/mL), pseudovirus neutralization [5]: 0.007 µg/mL
IC50 (µg/mL), pseudovirus neutralization [6]: 0.016 µg/mL
IC50 (µg/mL), neutralization of pseudovirus [7]: 0.019 µg/mL
IC50 (µg/mL), neutralization of pseudovirus [8]: > 50 µg/mL
IC50 (µg/mL), neutralization of pseudovirus [9]: > 50 µg/mL
IC50 (µg/mL), neutralization of pseudovirus [10]: > 50 µg/mL
IC50 (µg/mL), neutralization of pseudovirus [11]: 8.21 µg/mL
IC50 (µg/mL), neutralization of pseudovirus [12]: 0.995 µg/mL
IC50 (µg/mL), neutralization of pseudovirus [13]: 0.004 µg/mL
IC50 (µg/mL), neutralization of pseudovirus [14]: > 50 µg/mL
IC50 (µg/mL), neutralization of pseudovirus [15]: > 50 µg/mL
IC50 (µg/mL), neutralization of pseudovirus [16]: 0.319 µg/mL
IC50 (µg/mL), neutralization of pseudovirus [17]: 0.01 µg/mL
IC50 (µg/mL), neutralization of pseudovirus [18]: 0.095 µg/mL
IC50 (µg/mL), neutralization of pseudovirus [19]: 0.017 µg/mL
IC50 (µg/mL), neutralization of pseudovirus [20]: 0.313 µg/mL
IC50 (µg/mL), neutralization of pseudovirus [21]: 0.008 µg/mL
Fold IC50 increase relative to wild-type [51]: 0.1 fold
IC50 (µg/mL), neutralization of pseudovirus [23]: > 50 µg/mL
